Tested on: USA300 strain LAC biofilm
Test: Protease and DNaseI treatment of USA300 titanium biofilms (CLSM, COMSTAT)
Type: cell-based, Staphylococcus aureus
Details: 2 day biofilm, Proteinase K 2 μg/mL or DNaseI 0.5 Units/mL
Description: FIGS. 4A-B. Protease and DNaseI treatment of USA300 titanium biofilms. Biofilms of LAC with plasmid pCM12 were grown for two days on titanium. Biofilms were either untreated or grown in the presence of Proteinase K or DNaseI. For treatments, Proteinase K was added to 2 μg/mL and DNaseI was added to 0.5 Units/mL to the flow cell media. At 6 and 22 hr, CLSM images were obtained and analyzed. (FIG. 4A) Representative CLSM image reconstructions generated from a z series. Each side of the image grid square is 20 μm. (FIG. 4B) COMSTAT analysis of images represented in terms of average thickness (μm) and biomass (μm^3/μm^2). Green triangles represent untreated biofilm, red circles represent DNaseI treatment, and black squares represent Proteinase K treatment. Error bars represent standard deviation.
Biofilm Assays. For biofilms grown on glass, flow cell biofilm growth, confocal scanning laser microscopy (CSLM), and computer image analysis were performed as previously described (Boles and Horswill, 2008). […] For biofilm dispersal tests, AIP type I (AIP-I) was synthesized and quantified using an intein system (Malone et al., 2007), and biofilm dispersal tests were performed as previously described (Boles and Horswill, 2008). […] LAC biofilm integrity was monitored at 6 hr and 22 hr, and COMSTAT analysis was performed to quantify the biofilm properties. […]

B1: proteinase K: Proteinase K (Research Productions International), protease added to flow cell media (protein, UniProt P06873 106-384, looked up)
Proteinase K: AAQTNAPWGLARISSTSPGTSTYYYDESAGQGSCVYVIDTGIEASHPEFEGRAQMVKTYYYSSRDGNGHGTHCAGTVGSRTYGVAKKTQLFGVKVLDDNGSGQYSTIIAGMDFVASDKNNRNCPKGVVASLSLGGGYSSSVNSAAARLQSSGVMVAVAAGNNNADARNYSPASEPSVCTVGASDRYDRRSSFSNYGSVLDIFGPGTSILSTWIGGSTRSISGTSMATPHVAGLAAYLMTLGKTTAASACRYIADTANKGDLSNIPFGTVNLLAYNNYQA
B1 was tested, and the “LAC biomass detached from the titanium surface” value (6 hr) was “approximately 93%” and the “LAC biomass detached from the titanium surface” value (22 hr) was “all of the LAC biomass had detached”.

Reference: US20120064125A1 (priority 2009, published 2012)
